The experiment concerns the target IL-1 receptors (on articular chondrocytes). In words: cell-based or functional assay.

The record followed here is US7037492.

Regarding “human interleukin-1 receptor antagonist protein (IRAP) (from UniProt P18510 26-177) (ligand)”, the inhibition of gelatinase production by IL-1 treated chondrocytes, 5 U/ml IL-1, first culture's conditioned medium is 100%; the inhibition of gelatinase production by IL-1 treated chondrocytes, 5 U/ml IL-1, second culture's conditioned medium came out at 41%; the inhibition of gelatinase production by IL-1 treated chondrocytes, 10 U/ml IL-1, first culture's conditioned medium came to 38%; the inhibition of gelatinase production by IL-1 treated chondrocytes, 10 U/ml IL-1, second culture's conditioned medium came to 18%.
